# B1: minTWJ (structured_RNA)
# RNA: GGGUUGUCCUAUGGUGGAUCUUGAAAAGACCCUCGGAAGACAGGGCCACAUCGACGAUCAAUAUUUUGCCGUGAGGCUUAUAUGUCACCAUGGCAUGCAGCCC
# Columns and labels:
# Experiment in all cases: EMSA; 1 nM RNA, tRNA competitor; 25 mM Tris-HCl pH 7.5, 50 mM KCl, 1 mM MgCl2, 1 mM DTT, 10% glycerol, 0.1% Triton, 0.5 mg/mL BSA, 1.7 ng/uL yeast tRNA, 1 nM RNA probe; 15 min on ice then 10 min room temperature; gel at 6 C
# [1] = biological target: T1, klEst2 full-length (TERT) (Kluyveromyces lactis, UniProt Q6CSS0 1-861); conditions: protein: recombinant; tags: expressed in E. coli; His-SUMO tag described for the TRBD constructs, tag of full-length not clearly stated; label: 5'-32P when probe; three-way junction
# T1 sequence: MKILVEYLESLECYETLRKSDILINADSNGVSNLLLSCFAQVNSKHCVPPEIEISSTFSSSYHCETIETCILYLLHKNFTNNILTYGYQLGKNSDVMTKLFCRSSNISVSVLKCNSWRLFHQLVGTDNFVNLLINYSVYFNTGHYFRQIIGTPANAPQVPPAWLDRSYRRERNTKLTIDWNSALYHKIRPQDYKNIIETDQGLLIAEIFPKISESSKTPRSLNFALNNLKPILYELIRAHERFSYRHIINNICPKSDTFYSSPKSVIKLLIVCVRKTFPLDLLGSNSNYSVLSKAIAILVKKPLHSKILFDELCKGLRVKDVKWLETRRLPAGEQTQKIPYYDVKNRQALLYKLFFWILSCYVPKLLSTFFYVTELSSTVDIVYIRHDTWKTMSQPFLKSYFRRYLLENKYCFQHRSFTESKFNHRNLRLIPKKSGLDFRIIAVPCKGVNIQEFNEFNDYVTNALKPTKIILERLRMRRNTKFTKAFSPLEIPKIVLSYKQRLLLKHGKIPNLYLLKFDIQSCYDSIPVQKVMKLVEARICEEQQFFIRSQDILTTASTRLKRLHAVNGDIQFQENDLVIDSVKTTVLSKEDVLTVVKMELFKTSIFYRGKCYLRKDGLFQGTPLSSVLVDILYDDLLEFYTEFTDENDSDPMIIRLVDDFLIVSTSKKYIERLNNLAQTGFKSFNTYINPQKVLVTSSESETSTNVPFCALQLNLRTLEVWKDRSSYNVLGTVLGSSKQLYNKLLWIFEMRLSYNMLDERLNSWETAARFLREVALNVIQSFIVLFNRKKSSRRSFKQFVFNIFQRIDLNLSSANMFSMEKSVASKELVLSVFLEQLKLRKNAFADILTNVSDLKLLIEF
# klTRBD klEst2 171-404 = biological target: T2, klTRBD klEst2 171-404 (Kluyveromyces lactis, UniProt Q6CSS0 171-404); conditions: protein: recombinant; tags: N-terminal His-SUMO, TEV-cleaved; label: 5'-32P when probe; three-way junction
# T2 sequence: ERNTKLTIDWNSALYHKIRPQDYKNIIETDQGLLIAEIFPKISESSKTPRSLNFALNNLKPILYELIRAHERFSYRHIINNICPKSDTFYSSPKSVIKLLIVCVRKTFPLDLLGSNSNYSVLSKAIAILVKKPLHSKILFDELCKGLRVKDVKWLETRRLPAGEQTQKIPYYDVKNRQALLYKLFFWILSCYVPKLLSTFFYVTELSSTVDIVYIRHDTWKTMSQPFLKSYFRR
# klTRBD klEst2 171-422 = biological target: T3, klTRBD klEst2 171-422 (Kluyveromyces lactis, UniProt Q6CSS0 171-422); conditions: protein: recombinant; tags: N-terminal His-SUMO, TEV-cleaved; label: 5'-32P when probe; three-way junction
# T3 sequence: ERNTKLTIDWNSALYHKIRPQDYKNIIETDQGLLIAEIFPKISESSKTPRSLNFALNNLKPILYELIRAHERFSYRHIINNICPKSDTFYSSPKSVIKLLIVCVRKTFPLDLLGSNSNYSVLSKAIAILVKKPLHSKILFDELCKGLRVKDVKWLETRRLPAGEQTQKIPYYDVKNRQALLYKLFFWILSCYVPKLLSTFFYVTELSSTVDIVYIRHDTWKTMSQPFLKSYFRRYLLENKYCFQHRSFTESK
binder,measurement,setting,value
B1,binding result,[1],binds
same,binding result,klTRBD klEst2 171-404,no binding
same,binding result,klTRBD klEst2 171-422,no binding

# Source: article PMC9504884, “Functional Interactions of Kluyveromyces lactis Telomerase Reverse Transcriptase with the Three-Way Junction and the Template Domains of Telomerase RNA”
